In data set [1] the target is rAmpC CNE-1 from C. neteri SSMD04 (Cedecea neteri, UniProt A0A089PY88). The conditions noted are these: CNE-1 compared with CDA-1 (ref 13).
In data set [2] the test system is rAmpC CMH-4 from E. cloacae 13047. The data set is described as follows: Assay for ESAC and class B metallo-β-lactamase activity (nitrocefin hydrolysis with clavulanic acid or EDTA). It is filed as biochemical. The conditions noted are these: 2 mM test substance, 500 nM rAmpC, 500 µM nitrocefin, 30 °C, 8 min. The protocol: (§1) The reactions carried out in the absence and presence of EDTA with purified rAmpC enzymes using the reporter substrate, nitrocefin, were performed. […] The class C β-lactamases are functionally cephalosporinases that are generally resistant to clavulanic acid. However, some AmpCs which show resistance to oxyimino-cephalosporins and are commonly sensitive to clavulanic acid were termed extended-spectrum AmpC β-lactamases (ESAC), similar to the extended-spectrum β-lactamases (ESBLs) of the A class according to the Bush-Jacoby classification. […] To test this aspect of ESAC activity, reactions were performed in the presence of clavulanic acid.
(§2) For each panel, all reactions contained 500 nM rAMpC protein and 500 µM nitrocefin.
(§3) The reactions testing ESBL activity (related to the observation that most ESBL enzymes are inhibited by clavulanic acid) were performed in the absence or presence of 2 mM clavulanic acid. Class B β-Lactamase activity was tested by reactions performed in the absence or presence of 2 mM ethylenediaminetetraacetic acid (EDTA).

Data set [3] deals with rAmpC CNE-2 from C. neteri 33855. The data set is described as above. The note with it: 2 mM test substance, 500 nM rAmpC, 500 µM nitrocefin, 30 °C, 8 min. Format: biochemical. The protocol: as §1, §2, §3
For data set [4], the system named is rAmpC CNE-1 from C. neteri SSMD04. Described as above. It is filed as biochemical. The note with it: 2 mM test substance, 500 nM rAmpC, 500 µM nitrocefin, 30 °C, 8 min. The protocol:
as §1, §2, §3

For data set [5], the system named is CDA-1 (AmpC from C. davisae). The conditions noted are these: cited from earlier work.
Data set [6] has as its target rAmpC CMH-4 from E. cloacae ATCC 13047 (Enterobacter cloacae subsp. cloacae, UniProt A0A0H3CN55). The data set is described as follows: Michaelis-Menten kinetic analysis of substrate hydrolysis by purified rAmpC. The conditions noted are these: CMH-4 compared with E. cloacae P99 AmpC (ref 29).
The test system of data set [7] is CC1(C)S[C@@H]2[C@H](NC(=O)[C@H](N)c3ccccc3)C(=O)N2[C@H]1C(=O)O. The data set is described as follows: purified protein, by the assay type. The note with it: 37.0 °C.
In data set [8] the test system is CC1=C(C(=O)O)N2C(=O)[C@@H](NC(=O)[C@H](N)c3ccccc3)[C@H]2SC1. The data set is described as follows: purified protein, by the assay type. The note with it: 37.0 °C.
In data set [9] the test system is Cc1nnc(SCC2=C(C(=O)O)N3C(=O)[C@@H](NC(=O)Cn4cnnn4)[C@H]3SC2)s1. The data set is described as follows: purified protein, by the assay type. The conditions noted are these: 37.0 °C.
The subject of data set [10] is CO/N=C(\C(=O)N[C@@H]1C(=O)N2C(C(=O)O)=C(COC(N)=O)CS[C@H]12)c1ccco1. The data set is described as follows: purified protein, by the assay type. The conditions noted are these: 37.0 °C.
The test system of data set [11] is CO[C@@]1(NC(=O)Cc2cccs2)C(=O)N2C(C(=O)O)=C(COC(N)=O)CS[C@@H]21. The data set is described as follows: purified protein, by the assay type. The note with it: 37.0 °C.
Data set [12] deals with C[C@@H](O)[C@H]1C(=O)N2C(C(=O)O)=C(SCCN=CN)C[C@H]12. The data set is described as follows: purified protein, by the assay type. The note with it: 37.0 °C.
For data set [13], the system named is O=C(Cc1cccs1)N[C@@H]1C(=O)N2C(C(=O)O)=C(/C=C/c3ccc([N+](=O)[O-])cc3[N+](=O)[O-])CS[C@H]12. The data set is described as follows: purified protein, by the assay type. The note with it: pH 7.0; 30.0 °C.

As for `CO[C@@]1(NC(=O)Cc2cccs2)C(=O)N2C(C(=O)O)=C(COC(N)=O)CS[C@@H]21` [Cefoxitin, cefoxitin], the “Km, fold higher than for CDA-1 from C. davisae” value in data set [1] is reported as 100 fold.

Turning to `O=C(O)CN(CCN(CC(=O)O)CC(=O)O)CC(=O)O` [EDTA, ethylenediaminetetraacetic acid], the “Inhibition of nitrocefin hydrolysis” value in [2] is given as “hydrolyzed the substrate, nitrocefin, in the presence of EDTA”; in [3], “hydrolyzed the substrate, nitrocefin, in the presence of EDTA”; in data set [4], “hydrolyzed the substrate, nitrocefin, in the presence of EDTA”.

One may read the Km as the concentration of substrate that gives half-maximal velocity. For the molecule `C[C@@H](O)[C@H]1C(=O)N2C(C(=O)O)=C(SCCN=CN)C[C@H]12` [Imipenem, imipenem], the Km in data set [5] was roughly 2 µM.

With `O=C(O)[C@H]1/C(=C/CO)O[C@@H]2CC(=O)N21` [clavulanic acid], the results for the “Inhibition of nitrocefin hydrolysis” value in data set [2], in data set [3] and in [4] were “completely inhibited”, “not inhibited” and “not inhibited”, respectively.

Take `O=C(Cc1cccs1)N[C@@H]1C(=O)N2C(C(=O)O)=C(/C=C/c3ccc([N+](=O)[O-])cc3[N+](=O)[O-])CS[C@H]12` [nitrocefin]: the “kcat, fold less than for AmpC from E. cloacae P99” value in data set [6] is ~ 100 fold.

As usually defined, the kcat is the maximal rate divided by the concentration of active sites. Usually kcat/Km stands for the second-order rate constant that governs catalysis at low substrate concentration. In the case of (Cedecea neteri), the Km was 72 µM in [7]; 2 µM in data set [8]; 67 µM in data set [9]; 5 µM in data set [10]; 48 µM in data set [11]; 5 µM in [12]. The Km in data set [13] is listed as 46 ± 5 µM. The kcat in data set [13] was determined as 1.93 ± 0.16 s⁻¹. The kcat/Km in [13] is 41900 M⁻¹ s⁻¹.

As for “(Enterobacter cloacae subsp. cloacae ATCC 13047)”, the Km in [7] turned out to be 7 µM; in data set [8], 6.8 µM; in data set [10], 0.35 µM; in data set [11] it was 12 µM; in [12], 0.85 µM; in [13] it was 11 ± 2 µM.

(Values after article PMC9952435, “Characterization of Two Novel AmpC Beta-Lactamases from the Emerging Opportunistic Pathogen, Cedecea neteri” (Antibiotics, 2023).)
